According to US11906524B2, “Urea biosensors and uses thereof” (Duke University, priority 2015, dated 2024):
Changes are numbered by the printed parent chain. Numbers in names are those of the source.

B1: csUBP7 R95C: csUBP7 95C cysteine mutant (SEQ ID NO: 32), tested as Acrylodan and Badan conjugates (conjugate)
chain: MSSSESEKEKSEETIKVGILHSLSGTMSISEVSLKDAELMAIEEINNNGGVLGKKLEPIVEDGASDWPTFAEKAKKLLQKDKVAVIFGAWTSASCKAVLPVVEENNGLLFYPVQYEGLESSPNIFYMGAAPNQQIVPAVKWLFDNGKKRFYLLGSDYVFPRTANKIIKAYLKYLGGVVVGEEYTPLGHTDYSSVINKIKAAKPDVVFNTLNGDSNVAFFKQLKDAGIDANTLPVMSVSIAEEEIKGIGPEYLKGHLVTWNYFQSVDTPENKEFVEKYKKKYGEDRVTDDPIEAAYIGVYLWAKAVEKAGSTDVDKVREAAKGIEFNAPEGPVKIDGDNQHLYKTVRIGEILENGQIRELWKTNKPVKPDPYLKGYEWAQGLSEQGGSHHHHHH
modifications: Acrylodan or Badan conjugate; csUBP7_95C (95C substitution mutant with signal peptide replaced with M and a GGSHHHHHH at C-terminus, and also comprising a C89A substitution)
B2: csUBP7 W90C: csUBP7 90C cysteine mutant (SEQ ID NO: 28), tested as Acrylodan and Badan conjugates (conjugate)
chain: B1 chain with W90C, C95R
modifications: Acrylodan or Badan conjugate; csUBP7_90C (90C substitution mutant with signal peptide replaced with M and a GGSHHHHHH at C-terminus, and also comprising a C89A substitution)
B3: csUBP7 M27C: csUBP7 27C cysteine mutant (SEQ ID NO: 24), tested as Acrylodan and Badan conjugates (conjugate)
chain: B1 chain with M27C, C95R
modifications: Acrylodan or Badan conjugate; csUBP7_27C (27C substitution mutant with signal peptide replaced with M and a GGSHHHHHH at C-terminus, and also comprising a C89A substitution)
B4: csUBP7 S30C: csUBP7 30C cysteine mutant (SEQ ID NO: 25), tested as Acrylodan and Badan conjugates (conjugate)
chain: B1 chain with S30C, C95R
modifications: Acrylodan or Badan conjugate; csUBP7_30C (30C substitution mutant with signal peptide replaced with M and a GGSHHHHHH at C-terminus, and also comprising a C89A substitution)
B5: csUBP7 T26C: csUBP7 26C cysteine mutant (SEQ ID NO: 23), tested as Acrylodan and Badan conjugates (conjugate)
chain: B1 chain with T26C, C95R
modifications: Acrylodan or Badan conjugate; csUBP7_26C (26C substitution mutant with signal peptide replaced with M and a GGSHHHHHH at C-terminus, and also comprising a C89A substitution)
B6: csUBP7 E116C: csUBP7 116C cysteine mutant (SEQ ID NO: 36), tested as Acrylodan and Badan conjugates (conjugate)
chain: B1 chain with C95R, E116C
modifications: Acrylodan or Badan conjugate; csUBP7_116C (116C substitution mutant with signal peptide replaced with M and a GGSHHHHHH at C-terminus, and also comprising a C89A substitution)
B7: csUBP7 T91C: csUBP7 91C cysteine mutant (SEQ ID NO: 29), tested as Acrylodan and Badan conjugates (conjugate)
chain: B1 chain with T91C, C95R
modifications: Acrylodan or Badan conjugate; csUBP7_91C (91C substitution mutant with signal peptide replaced with M and a GGSHHHHHH at C-terminus, and also comprising a C89A substitution)
B8: csUBP7 T69C: csUBP7 69C cysteine mutant (SEQ ID NO: 27), tested as Acrylodan and Badan conjugates (conjugate)
chain: B1 chain with T69C, C95R
modifications: Acrylodan or Badan conjugate; csUBP7_69C (69C substitution mutant with signal peptide replaced with M and a GGSHHHHHH at C-terminus, and also comprising a C89A substitution)
B9: bsUBP3 L172C: bsUBP3 172C cysteine mutant (SEQ ID NO: 48), tested as Acrylodan conjugate (conjugate)
chain: MKVGILHSLSGTMAISEVSVHDAELIAIQEINQKGGVLGKKLEPVVEDGASDWPTYAEKMRKLLQQDKVAAVFGGWTSASRKAMLPVVEQNNGLLFYPVQYEGMETSPNIFYTGATTNQQIVPAVDWLLKNKGKKFFLIGSDYVFPRTANKIIKAQVKAGGGEIAGEEYTPCGHTNYSTLVSKIKEKQPDVIFNTLNGDSNVAFFKQLKDAGISADDMPVMSASVAEEEIRGIGPDVLKGHYAVWNYFQTTNTSENQTFVKNYKKMNGDSRVTSDPIEAGYNAVYLWAAAVEKAKSFDVDKVKKAADGISFKAPGGTVKIDGDTQHLYKTVRIGQITGDGQFKEVWNSGEPVKPDPYLKTYDWAKGLSKGGSHHHHHH
modifications: Acrylodan conjugate; bsUBP3_172C (172C substitution mutant with signal peptide replaced with M and a GGSHHHHHH at C-terminus)

Experiment: Urea titration of emission intensity spectra (Nanodrop3300) with ratiometric analysis, singly labeled conjugates
Type: binding
Set-up: key to Acrylodan Intensity / Badan Intensity: +, increases in response to urea; −, decreases; 0, no change; key to Badan Dipoles / Acrylodan Dipoles: blue, (maxima <500 nm); g, green (maxima >500 nm); b/g, mixed population; key to Acrylodan Shape / Badan Shape: m, monochromatic; d, dichromatic (i.e. spectral shape changes); 0, no change
Conditions: Acrylodan and Badan conjugates screened
Source text: Determination of emission intensity spectra.
(§1) Ratiometric analysis of urea binding. […] 2
(§2) For a single urea-binding site, the fractional saturation is given by
(§3) [formula] where [L] is the ligand (urea) concentration and Kd the dissociation constant, ^trueKd for ytrue.
[formula] where ^appIλ2 and ^satIλ2 are the emission intensities of the monochromatic signal at wavelength λ2 of the ligand-free and ligand-bound protein, respectively.

Molecule	ratiometric response to urea
B1	good ratiometric responses

Same assay, conditions: csUBP7 Acrylodan conjugate; emission intensity change on urea

Molecule	Acrylodan Intensity
B1	−
B2	+
B3	+
B4	+
B5	−
B6	+
B7	−

Same assay, conditions: csUBP7 Acrylodan conjugate; emission spectrum shape change on urea

Molecule	Acrylodan Shape
B1	m
B2	d
B3	m
B8	0
B4	d
B5	d
B6	d
B7	m

Same assay, conditions: csUBP7 Acrylodan conjugate; estimated change in populations of major emission bands

Molecule	Acrylodan Dipoles
B1	b (blue, (maxima <500 nm))
B2	b/g→b
B3	g (g, green (maxima >500 nm))
B8	g (g, green (maxima >500 nm))
B4	b/g→b
B5	b→g
B6	b/g→g
B7	b/g

Same assay, conditions: csUBP7 Acrylodan conjugate; urea; read-out: Acrylodan ^trueKd

Kd [µM]	Molecule
300	B1
7100	B2
4600	B3
5200	B4
90	B5
29000	B6
700	B7

Same assay, conditions: csUBP7 Badan conjugate; emission intensity change on urea

Molecule	Badan Intensity
B1	+
B2	+
B3	−
B8	−
B4	+
B5	−
B6	−
B7	−

Same assay, conditions: csUBP7 Badan conjugate; emission spectrum shape change on urea

Molecule	Badan Shape
B1	d
B2	m
B3	d
B8	d
B4	d
B5	m
B6	m
B7	d

Same assay, conditions: csUBP7 Badan conjugate; estimated change in populations of major emission bands

Molecule	Badan Dipoles
B1	g→b
B2	b/g
B3	g→b/g
B8	g→b/g
B4	g→b
B5	b/g
B6	b/g
B7	b/g→b

Same assay, conditions: csUBP7 Badan conjugate; urea; read-out: Badan ^trueKd

Kd [µM]	Molecule
2200	B1
8500	B2
3200	B3
7	B8
300	B4
300	B5
10000	B6
600	B7

Experiment: Temperature- and urea-dependent fluorescence landscapes of fluorescent conjugates (Roche LightCycler)
Type: binding
Set-up: key: y, yes; n, no
Conditions: Acrylodan conjugate; fluorescent response to urea
Procedure: We constructed 20 single cysteine mutants in csUBP7, exploring 7 endosteric, 12 peristeric, and 1 allosteric position (FIG. 9). At each position we attached the Prodan-derived fluorophores Acrylodan and Badan, which differ by one methylene group in their thiol-reactive linker. The fluorescent responses of these conjugates was determined initially as a function of urea concentration and temperature (FIG. 10). […] The ligand dependence of the emission spectra shapes was determined for these conjugates (Table 8).
Determination of temperature- and ligand-dependent fluorescence landscapes. […] Urea concentrations were varied from 0-4.8 M in 20 mM KCl, 20 mM MOPS (pH 7.4). […] Temperatures were advanced in 1K steps.
as §1, §2, §3
To obtain the temperature dependence of the binding reaction, the Kd values of all the individually determined isotherms were fit the Gibbs-Hemholtz equation (Layton and Hellinga, 2010, Biochemistry, 49, 10831-41):
[formula] where ΔGb^•(T) is the standard free energy of binding at 1 M ligand at temperature T,
[formula] Δ^refHb^• and Δ^refSb^• the molar enthalpy and entropy of binding, respectively, at the reference temperature, Tref, and ΔCp,b the heat capacity of the binding reaction.

Molecule	Response
B9	y
B1	y
B2	y
B3	y
B8	n
B4	y
B5	y
B6	y
B7	n

Same assay, conditions: Badan conjugate; fluorescent response to urea

Molecule	Response
B1	y
B2	y
B3	y
B8	y
B4	y
B5	y
B6	y
B7	y
